# Test results as given in patent US20160264647A1 (US Dept. of Health and Human Services, published 2016).
# T1: MERS-CoV spike glycoprotein (S) (MERS-CoV, UniProt K9N5Q8 18-1353)
# T1 sequence: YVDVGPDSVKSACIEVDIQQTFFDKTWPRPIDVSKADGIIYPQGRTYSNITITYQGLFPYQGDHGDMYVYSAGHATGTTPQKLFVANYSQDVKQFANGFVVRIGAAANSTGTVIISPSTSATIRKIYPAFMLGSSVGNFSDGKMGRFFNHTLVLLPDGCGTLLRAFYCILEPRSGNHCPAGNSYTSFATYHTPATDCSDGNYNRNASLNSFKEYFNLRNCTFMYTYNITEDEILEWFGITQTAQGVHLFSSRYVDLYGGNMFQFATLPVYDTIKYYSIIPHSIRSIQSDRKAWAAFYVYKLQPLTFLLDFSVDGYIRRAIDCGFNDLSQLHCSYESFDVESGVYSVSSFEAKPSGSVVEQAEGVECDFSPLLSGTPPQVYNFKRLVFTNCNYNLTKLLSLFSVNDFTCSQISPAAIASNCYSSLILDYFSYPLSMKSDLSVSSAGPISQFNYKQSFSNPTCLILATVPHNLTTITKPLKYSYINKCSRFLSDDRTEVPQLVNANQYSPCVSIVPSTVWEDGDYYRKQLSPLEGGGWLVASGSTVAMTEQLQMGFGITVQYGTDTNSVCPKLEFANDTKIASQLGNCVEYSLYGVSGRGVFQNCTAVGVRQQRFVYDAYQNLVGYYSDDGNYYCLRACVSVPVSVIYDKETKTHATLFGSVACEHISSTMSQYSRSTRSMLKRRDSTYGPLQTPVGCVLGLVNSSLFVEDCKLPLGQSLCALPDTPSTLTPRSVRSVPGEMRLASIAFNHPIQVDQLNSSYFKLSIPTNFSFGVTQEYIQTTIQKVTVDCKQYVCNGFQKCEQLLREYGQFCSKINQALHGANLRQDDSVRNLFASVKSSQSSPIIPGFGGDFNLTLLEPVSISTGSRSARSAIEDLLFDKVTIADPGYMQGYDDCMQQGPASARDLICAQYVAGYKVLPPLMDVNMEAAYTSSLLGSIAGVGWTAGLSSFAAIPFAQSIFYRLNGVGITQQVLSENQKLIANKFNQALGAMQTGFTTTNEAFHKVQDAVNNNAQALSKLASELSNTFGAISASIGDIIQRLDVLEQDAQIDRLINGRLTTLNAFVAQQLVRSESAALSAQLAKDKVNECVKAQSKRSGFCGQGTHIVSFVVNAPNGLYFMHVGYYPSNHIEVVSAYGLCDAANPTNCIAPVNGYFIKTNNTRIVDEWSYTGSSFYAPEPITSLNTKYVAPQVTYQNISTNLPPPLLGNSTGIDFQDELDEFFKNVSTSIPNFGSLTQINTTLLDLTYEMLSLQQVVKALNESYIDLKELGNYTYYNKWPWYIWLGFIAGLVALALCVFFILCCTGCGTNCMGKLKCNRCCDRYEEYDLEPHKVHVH
# B1: IgG1 m336 (antibody, V domains shown)
# VH: QVQLVQSGAEVKKPGSSVKVSCKASGGTFSSYAISWVRQAPGQGLEWMGGIIPIFGTASYAQKFQGRVTITADKSTSTAYMELSSLRSEDTAVYYCARVGYCSSTSCNRGAFDIWGQGTMVTVSS
# VL: DIQLTQSPSSLSASVGDRVTITCRASQGIRNDLGWYQQKPGKAPKLLIYAASSLQSGVPSRFSGSGSGTDFTLTISSLQPEDFATYYCQQLNSYPLTFGGGTKVEIKR
# B2: IgG1 m337 (antibody, V domains shown)
# VH: QVQLQQSGAEVKKPGSSVKVSCKASGGTFSSYTISWVRQAPGQGLEWMGRIIPIFGTANYAQKFQGRVTITADKSTSTAYMELSSLRSEDTAVYYCARDLGPGGDSSGYYYGPGAFDIWGQGTMVTVSS
# VL: not shown
# B3: IgG1 m338 (antibody, V domains shown)
# VH: QVQLQQSGAEVKKRGSSVKVSCKASGGTFSSYTISWVRQAPGQGLEWMGRIIPILGIANYAQKFQGRVTITADKSTSTAYMELSSLRSEDTAVYYCARDLYDSSGYYRNTDAFDIWGQGTMVTVSS
# VL: EIVMTQSPVTLSLSPGERATLSCRASQSVSSYLAWYQQKPGQAPRLLIYDASNRATGIPARFSGSGSGTDFTLTISSLEPEDFAVYYCQQYGSSPWTFGQGTKVEIKR
# Target: T1, MERS-CoV spike glycoprotein (S)
# Assay: cell-based or functional assay
row,Binder,MERS-CoV pseudovirus neutralization (inhibition of viral entry) at 0.1 µg/ml [%]
1,B1,> 95
2,B2,> 95
3,B3,> 95
